From US20250339531A1, “DUX4 POLYPEPTIDES AND NUCLEIC ACIDS FOR TREATING INFLAMMATORY AND AUTOIMMUNE CONDITIONS” (Fred Hutchinson Cancer Center, priority 2021, published 2025)

System: proteins that co-immunoprecipitated with DUX4-CTD constructs expressed in MB135 myoblasts
Experiment: LC-MS of proteins co-immunoprecipitated with DUX4-CTD (Table 1) and western validation
Format: binding, human
Design: key to 4. mL1dL2 + Dox + IFNG / 4. + IFNG mix / 4. longCTD + Dox + IFNG / 3. + IFNg + Dox longCTD / 3. + Dox longCTD / 3. + IFNG longCTD: peptide-spectrum matches (PSMs) per protein
Settings: for 4. longCTD + Dox + IFNG: LC-MS counts of the listed protein co-immunoprecipitated with DUX4-CTD bait longCTD, experiment 4, Dox + IFNG; for 3. + Dox longCTD / 3. + IFNG longCTD / 3. + IFNg + Dox longCTD: bait longCTD; for 3. + Dox longCTD: experiment 3, Dox only; for 3. + IFNG longCTD: experiment 3, IFNG only, no doxycycline (bait at background level); for 3. + IFNg + Dox longCTD: experiment 3, IFNg + Dox; for SUM of PSMS: sum over all samples
Outline: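 FLAG-tagged DUX4-CTD expressed in doxycycline-induced MB135 myoblasts, some also IFNG-treated; nuclear lysates in pH 7.4 NP-40 IP buffer were pre-cleared, then anti-FLAG immunoprecipitated 3 h at 4 °C. For LC-MS, FLAG-peptide elution, in-gel trypsin digest, Orbitrap analysis; proteins with ≥2 PSMs in both experiments categorised and ranked by total PSMs.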

B1: P07437 (protein, UniProt P07437 1-444, looked up)
chain: MREIVHIQAGQCGNQIGAKFWEVISDEHGIDPTGTYHGDSDLQLDRISVYYNEATGGKYVPRAILVDLEPGTMDSVRSGPFGQIFRPDNFVFGQSGAGNNWAKGHYTEGAELVDSVLDVVRKEAESCDCLQGFQLTHSLGGGTGSGMGTLLISKIREEYPDRIMNTFSVVPSPKVSDTVVEPYNATLSVHQLVENTDETYCIDNEALYDICFRTLKLTTPTYGDLNHLVSATMSGVTTCLRFPGQLNADLRKLAVNMVPFPRLHFFMPGFAPLTSRGSQQYRALTVPELTQQVFDAKNMMAACDPRHGRYLTVAAVFRGRMSMKEVDEQMLNVQNKNSSYFVEWIPNNVKTAVCDIPPRGLKMAVTFIGNSTAIQELFKRISEQFTAMFRRKAFLHWYTGEGMDEMEFTEAESNMNDLVSEYQQYQDATAEEEEDFGEEAEEEA
modifications: full-length
- 4. longCTD + Dox + IFNG: 110
- 3. + Dox longCTD: 41
- 3. + IFNG longCTD: 14
- 3. + IFNg + Dox longCTD: 75
- SUM of PSMS: 315

B2: Q13409 (protein, UniProt Q13409 1-638, looked up)
chain: MSDKSELKAELERKKQRLAQIREEKKRKEEERKKKETDQKKEAVAPVQEESDLEKKRREAEALLQSMGLTPESPIVFSEYWVPPPMSPSSKSVSTPSEAGSQDSGDGAVGSRTLHWDTDPSVLQLHSDSDLGRGPIKLGMAKITQVDFPPREIVTYTKETQTPVMAQPKEDEEEDDDVVAPKPPIEPEEEKTLKKDEENDSKAPPHELTEEEKQQILHSEEFLSFFDHSTRIVERALSEQINIFFDYSGRDLEDKEGEIQAGAKLSLNRQFFDERWSKHRVVSCLDWSSQYPELLVASYNNNEDAPHEPDGVALVWNMKYKKTTPEYVFHCQSAVMSATFAKFHPNLVVGGTYSGQIVLWDNRSNKRTPVQRTPLSAAAHTHPVYCVNVVGTQNAHNLISISTDGKICSWSLDMLSHPQDSMELVHKQSKAVAVTSMSFPVGDVNNFVVGSEEGSVYTACRHGSKAGISEMFEGHQGPITGIHCHAAVGAVDFSHLFVTSSFDWTVKLWTTKNNKPLYSFEDNADYVYDVMWSPTHPALFACVDGMGRLDLWNLNNDTEVPTASISVEGNPALNRVRWTHSGREIAVGDSEGQIVIYDVGEQIAVPRNDEWARFGRTLAEINANRADAEEEAATRIPA
modifications: full-length
- 4. longCTD + Dox + IFNG: 4
- 3. + IFNg + Dox longCTD: 1
- SUM of PSMS: 5

B3: P68366 (protein, UniProt P68366 1-448, looked up)
chain: MRECISVHVGQAGVQMGNACWELYCLEHGIQPDGQMPSDKTIGGGDDSFTTFFCETGAGKHVPRAVFVDLEPTVIDEIRNGPYRQLFHPEQLITGKEDAANNYARGHYTIGKEIIDPVLDRIRKLSDQCTGLQGFLVFHSFGGGTGSGFTSLLMERLSVDYGKKSKLEFSIYPAPQVSTAVVEPYNSILTTHTTLEHSDCAFMVDNEAIYDICRRNLDIERPTYTNLNRLISQIVSSITASLRFDGALNVDLTEFQTNLVPYPRIHFPLATYAPVISAEKAYHEQLSVAEITNACFEPANQMVKCDPRHGKYMACCLLYRGDVVPKDVNAAIAAIKTKRSIQFVDWCPTGFKVGINYQPPTVVPGGDLAKVQRAVCMLSNTTAIAEAWARLDHKFDLMYAKRAFVHWYVGEGMEEGEFSEAREDMAALEKDYEEVGIDSYEDEDEGEE
modifications: full-length
- 4. longCTD + Dox + IFNG: 16
- 3. + Dox longCTD: 14
- 3. + IFNg + Dox longCTD: 39
- SUM of PSMS: 69

B4: Q13885 (protein, UniProt Q13885 1-445, looked up)
chain: MREIVHIQAGQCGNQIGAKFWEVISDEHGIDPTGSYHGDSDLQLERINVYYNEAAGNKYVPRAILVDLEPGTMDSVRSGPFGQIFRPDNFVFGQSGAGNNWAKGHYTEGAELVDSVLDVVRKESESCDCLQGFQLTHSLGGGTGSGMGTLLISKIREEYPDRIMNTFSVMPSPKVSDTVVEPYNATLSVHQLVENTDETYSIDNEALYDICFRTLKLTTPTYGDLNHLVSATMSGVTTCLRFPGQLNADLRKLAVNMVPFPRLHFFMPGFAPLTSRGSQQYRALTVPELTQQMFDSKNMMAACDPRHGRYLTVAAIFRGRMSMKEVDEQMLNVQNKNSSYFVEWIPNNVKTAVCDIPPRGLKMSATFIGNSTAIQELFKRISEQFTAMFRRKAFLHWYTGEGMDEMEFTEAESNMNDLVSEYQQYQDATADEQGEFEEEEGEDEA
modifications: full-length
- 4. longCTD + Dox + IFNG: 99
- 3. + Dox longCTD: 35
- 3. + IFNG longCTD: 13
- 3. + IFNg + Dox longCTD: 61
- SUM of PSMS: 208

B5: Q3SY84 (protein, UniProt Q3SY84 1-523, looked up)
chain: MSRQFTCKSGAAAKGGFSGCSAVLSGGSSSSFRAGSKGLSGGFGSRSLYSLGGVRSLNVASGSGKSGGYGFGRGRASGFAGSMFGSVALGPVCPTVCPPGGIHQVTVNESLLAPLNVELDPEIQKVRAQEREQIKALNNKFASFIDKVRFLEQQNQVLETKWELLQQLDLNNCKNNLEPILEGYISNLRKQLETLSGDRVRLDSELRNVRDVVEDYKKRYEEEINKRTAAENEFVLLKKDVDAAYANKVELQAKVESMDQEIKFFRCLFEAEITQIQSHISDMSVILSMDNNRNLDLDSIIDEVRTQYEEIALKSKAEAEALYQTKFQELQLAAGRHGDDLKNTKNEISELTRLIQRIRSEIENVKKQASNLETAIADAEQRGDNALKDARAKLDELEGALHQAKEELARMLREYQELMSLKLALDMEIATYRKLLESEECRMSGEFPSPVSISIISSTSGGSVYGFRPSMVSGGYVANSSNCISGVCSVRGGEGRSRGSANDYKDTLGKGSSLSAPSKKTSR
modifications: full-length
- 3. + IFNg + Dox longCTD: 9
- SUM of PSMS: 30

B6: SF3B3 (protein)
chain: MFLYNLTLQRATGISFAIHGNFSGTKQQEIVVSRGKILELLRPDPNTGKVHTLLTVEVFGVIRSLMAFRLTGGTKDYIVVGSDSGRIVILEYQPSKNMFEKIHQETFGKSGCRRIVPGQFLAVDPKGRAVMISAIEKQKLVYILNRDAAARLTISSPLEAHKANTLVYHVVGVDVGFENPMFACLEMDYEEADNDPTGEAAANTQQTLTFYELDLGLNHVVRKYSEPLEEHGNFLITVPGGSDGPSGVLICSENYITYKNFGDQPDIRCPIPRRRNDLDDPERGMIFVCSATHKTKSMFFFLAQTEQGDIFKITLETDEDMVTEIRLKYFDTVPVAAAMCVLKTGFLFVASEFGNHYLYQIAHLGDDDEEPEFSSAMPLEEGDTFFFQPRPLKNLVLVDELDSLSPILFCQIADLANEDTPQLYVACGRGPRSSLRVLRHGLEVSEMAVSELPGNPNAVWTVRRHIEDEFDAYIIVSFVNATLVLSIGETVEEVTDSGFLGTTPTLSCSLLGDDALVQVYPDGIRHIRADKRVNEWKTPGKKTIVKCAVNQRQVVIALTGGELVYFEMDPSGQLNEYTERKEMSADVVCMSLANVPPGEQRSRFLAVGLVDNTVRIISLDPSDCLQPLSMQALPAQPESLCIVEMGGTEKQDELGERGSIGFLYLNIGLQNGVLLRTVLDPVTGDLSDTRTRYLGSRPVKLFRVRMQGQEAVLAMSSRSWLSYSYQSRFHLTPLSYETLEFASGFASEQCPEGIVAISTNTLRILALEKLGAVFNQVAFPLQYTPRKFVIHPESNNLIIIETDHNAYTEATKAQRKQQMAEEMVEAAGEDERELAAEMAAAFLNENLPESIFGAPKAGNGQWASVIRVMNPIQGNTLDLVQLEQNEAAFSVAVCRFSNTGEDWYVLVGVAKDLILNPRSVAGGFVYTYKLVNNGEKLEFLHKTPVEEVPAAIAPFQGRVLIGVGKLLRVYDLGKKKLLRKCENKHIANYISGIQTIGHRVIVSDVQESFIWVRYKRNENQLIIFADDTYPRWVTTASLLDYDTVAGADKFGNICVVRLPPNTNDEVDEDPTGNKALWDRGLLNGASQKAEVIMNYHVGETVLSLQKTTLIPGGSESLVYTTLSGGIGILVPFTSHEDHDFFQHVEMHLRSEHPPLCGRDHLSFRSYYFPVKNVIDGDLCEQFNSMEPNKQKNVSEELDRTPPEVSKKLEDIRTRYAF
- 4. mL1dL2 + Dox + IFNG (LC-MS value per protein co-immunoprecipitated with DUX4-CTD construct mL1dL2 in MB135 myoblasts, + Dox + IFNG, kind of count not given): 10

B7: Q9BUF5 (protein, UniProt Q9BUF5 1-446, looked up)
chain: MREIVHIQAGQCGNQIGTKFWEVISDEHGIDPAGGYVGDSALQLERINVYYNESSSQKYVPRAALVDLEPGTMDSVRSGPFGQLFRPDNFIFGQTGAGNNWAKGHYTEGAELVDAVLDVVRKECEHCDCLQGFQLTHSLGGGTGSGMGTLLISKIREEFPDRIMNTFSVMPSPKVSDTVVEPYNATLSVHQLVENTDETYCIDNEALYDICFRTLKLTTPTYGDLNHLVSATMSGVTTSLRFPGQLNADLRKLAVNMVPFPRLHFFMPGFAPLTSRGSQQYRALTVPELTQQMFDARNMMAACDPRHGRYLTVATVFRGPMSMKEVDEQMLAIQSKNSSYFVEWIPNNVKVAVCDIPPRGLKMASTFIGNSTAIQELFKRISEQFSAMFRRKAFLHWFTGEGMDEMEFTEAESNMNDLVSEYQQYQDATANDGEEAFEDEEEEIDG
modifications: full-length
- 4. longCTD + Dox + IFNG: 46
- 3. + Dox longCTD: 20
- 3. + IFNg + Dox longCTD: 39
- SUM of PSMS: 128

B8: Q14247 (protein, UniProt Q14247 1-550, looked up)
chain: MWKASAGHAVSIAQDDAGADDWETDPDFVNDVSEKEQRWGAKTVQGSGHQEHINIHKLRENVFQEHQTLKEKELETGPKASHGYGGKFGVEQDRMDKSAVGHEYQSKLSKHCSQVDSVRGFGGKFGVQMDRVDQSAVGFEYQGKTEKHASQKDYSSGFGGKYGVQADRVDKSAVGFDYQGKTEKHESQRDYSKGFGGKYGIDKDKVDKSAVGFEYQGKTEKHESQKDYVKGFGGKFGVQTDRQDKCALGWDHQEKLQLHESQKDYKTGFGGKFGVQSERQDSAAVGFDYKEKLAKHESQQDYSKGFGGKYGVQKDRMDKNASTFEDVTQVSSAYQKTVPVEAVTSKTSNIRANFENLAKEKEQEDRRKAEAERAQRMAKERQEQEEARRKLEEQARAKTQTPPVSPAPQPTEERLPSSPVYEDAASFKAELSYRGPVSGTEPEPVYSMEAADYREASSQQGLAYATEAVYESAEAPGHYPAEDSTYDEYENDLGITAVALYDYQAAGDDEISFDPDDIITNIEMIDDGWWRGVCKGRYGLFPANYVELRQ
modifications: full-length
- 4. longCTD + Dox + IFNG: 5
- 3. + IFNg + Dox longCTD: 1
- SUM of PSMS: 6
